± gives the standard deviation of the averaged measurements.
Tested on: ATP
Assay: switch fluorescence ratio, 500 uM ATP over buffer (Cy3 cluster intensity, sum of 5 cycles each) (fold (ratio)); higher = stronger signal-on switching upon ATP binding; sequences stand for … in TCGTCGGCAGCGTCAGATGTGTATAAGAGACAGTTTTTTTTTTTTTTTTTTTTTTTTT…TC
Settings: aptamer strand: ATP DNA aptamer (quencher-CACCTGGGGGAGTATTGCGGAGGAAGG + anchor), 100 nM annealed; ATP concentration: 500 uM
Method in brief: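 Clusters carrying Cy3-labelled switching strands on a modified Illumina MiSeq flow-cell were annealed to 100 nM quencher-labelled ATP aptamer and imaged in selection buffer. They were imaged again after 15 min with 500 uM ATP at 22 °C, over five buffer/ATP cycles with NaOH stripping and re-annealing in between. For each cluster, the fluorescence ratio is the summed Cy3 intensity of the target cycles divided by that of the buffer cycles, averaged per switch-domain sequence. Clusters outside 100-1000 RFU were left out.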
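Further: ATP exposure 15 min at 22 °C before imaging.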

Sequence	switch fluorescence ratio
TTTGAACTTC	1.27 ± 0.38
TTTGAAGAAC	1.01 ± 0.056
TTTGAAGCAG	1.08 ± 0.068
TTTGAAGTGG	1.03 ± 0.03
TTTGAATTAA	1.01 ± 0.049
TTTGAATTTG	0.974 ± 0.023
TTTGACAAGC	1.15 ± 0.18
TTTGACCCTA	1.04 ± 0.019
TTTGACGGTT	1.03 ± 0.015
TTTGACTGAG	0.997 ± 0.023
TTTGAGAAAG	0.992 ± 0.019
TTTGAGACGT	1.02 ± 0.041
TTTGAGATTG	0.99556 ± 0.00097
TTTGAGCTCT	0.97 ± 0.014
TTTGAGCTGG	0.996 ± 0.035
TTTGAGGGTC	0.991 ± 0.037
TTTGAGGTTT	1.01 ± 0.011
TTTGAGTAAA	1.01 ± 0.019
TTTGAGTAAG	1.02 ± 0.046
TTTGAGTTT	0.981 ± 0.012
TTTGATAAAG	1.03 ± 0.092
TTTGATACGG	1 ± 0.028
TTTGATATAG	0.994 ± 0.034
TTTGATCTTG	1.01 ± 0.013
TTTGATGAGA	1 ± 0.028

Sequence	switch fluorescence ratio
TTTGATGAGT	1.01 ± 0.013
TTTGATGGGG	0.988 ± 0.025
TTTGATGGTG	1.04 ± 0.012
TTTGATTCAG	1.04 ± 0.071
TTTGATTGCA	1.03 ± 0.068
TTTGATTGCG	1 ± 0.011
TTTGATTTTG	0.989 ± 0.016
TTTGCAATTG	1.13 ± 0.062
TTTGCACCAT	1.03 ± 0.017
TTTGCAGAAC	1.2 ± 0.15
TTTGCAGCGG	1.02 ± 0.012
TTTGCCATTT	1.02 ± 0.033
TTTGCCCAGA	1.02 ± 0.041
TTTGCCCCTG	1.03 ± 0.021
TTTGCCGAGT	0.996 ± 0.044
TTTGCCGCCC	1.145 ± 0.0012
TTTGCGACCT	1.13 ± 0.066
TTTGCGATGG	1.09 ± 0.011
TTTGCGGAGG	1.27 ± 0.48
TTTGCGGGAT	1.03 ± 0.014
TTTGCTACGG	1.05 ± 0.013
TTTGCTAGAT	1.047 ± 0.0097
TTTGCTATCA	0.984 ± 0.013
TTTGCTGAAA	0.964 ± 0.026
TTTGCTGGTA	1.006 ± 0.0064

Sequence	switch fluorescence ratio
TTTGCTGGTC	1.05 ± 0.025
TTTGCTTAGA	1.04 ± 0.025
TTTGCTTGGG	1.02 ± 0.033
TTTGGACATC	1.02 ± 0.027
TTTGGACGCA	1.12 ± 0.12
TTTGGACGGT	1.015 ± 0.0099
TTTGGAGCAC	1.6 ± 0.2
TTTGGAGGGG	1.03 ± 0.039
TTTGGAGTGG	0.998 ± 0.033
TTTGGATACG	1.01 ± 0.011
TTTGGATGGG	0.994 ± 0.012
TTTGGATTGT	1.006 ± 0.0074
TTTGGATTTT	1 ± 0.045
TTTGGCCCTT	1.02 ± 0.027
TTTGGCCGTT	1.2 ± 0.26
TTTGGCCTAC	1.01 ± 0.02
TTTGGCTACG	1.01 ± 0.011
TTTGGCTGAA	1.01 ± 0.019
TTTGGCTTAG	0.991 ± 0.029
TTTGGCTTGC	1.01 ± 0.042
TTTGGCTTTC	1.06 ± 0.016
TTTGGGAACT	1 ± 0.021
TTTGGGACGC	1.05 ± 0.088
TTTGGGAGTG	0.965 ± 0.037
TTTGGGATGC	1.07 ± 0.095

Sequence	switch fluorescence ratio
TTTGGGATGT	1.02 ± 0.073
TTTGGGCCGC	1.06 ± 0.05
TTTGGGCGGT	1.04 ± 0.12
TTTGGGCTCC	0.98 ± 0.018
TTTGGGGCTA	1.05 ± 0.15
TTTGGGGGAA	0.994 ± 0.046
TTTGGGGGG	1.05 ± 0.046
TTTGGGGTAG	0.977 ± 0.015
TTTGGGGTCA	1 ± 0.016
TTTGGGGTG	1.04 ± 0.022
TTTGGGTAAA	1.02 ± 0.032
TTTGGGTATC	0.982 ± 0.041
TTTGGGTGCG	0.998 ± 0.04
TTTGGTAGCT	0.9596 ± 0.0037
TTTGGTATGA	0.9736 ± 0.0021
TTTGGTATGG	0.997 ± 0.015
TTTGGTATGT	1.03 ± 0.057
TTTGGTATTT	0.984 ± 0.025
TTTGGTCGTG	1.042 ± 0.0036
TTTGGTGACT	1.018 ± 0.0063
TTTGGTGATT	0.982 ± 0.025
TTTGGTGCGG	0.985 ± 0.01
TTTGGTGGCA	0.9992 ± 0.0099
TTTGGTGGGA	0.972 ± 0.026
TTTGGTGGGT	0.975 ± 0.012

Sequence	switch fluorescence ratio
TTTGGTGGTT	1.03 ± 0.059
TTTGGTGTTG	0.987 ± 0.022
TTTGGTTCTC	0.977 ± 0.012
TTTGGTTGT	0.972 ± 0.013
TTTGGTTGTG	0.986 ± 0.018
TTTGGTTTAT	0.982 ± 0.04
TTTGGTTTCC	1.01 ± 0.053
TTTGGTTTGC	0.992 ± 0.0039
TTTGTAAATT	1 ± 0.018
TTTGTAACAC	1.25 ± 0.36
TTTGTAATGG	1.08 ± 0.14
TTTGTAGAGC	1.05 ± 0.063
TTTGTAGCAC	1.31 ± 0.072
TTTGTAGGCA	0.989 ± 0.011
TTTGTAGTTT	1.03 ± 0.055
TTTGTATGAG	1.03 ± 0.025
TTTGTATGGT	0.976 ± 0.011
TTTGTATTAG	1 ± 0.028
TTTGTATTCG	1.004 ± 0.0064
TTTGTCAAGG	1.02 ± 0.015
TTTGTCAGAT	0.98 ± 0.013
TTTGTCAGGT	0.9692 ± 0.0021
TTTGTCCCGT	0.98 ± 0.026
TTTGTCGCTG	1.01 ± 0.038
TTTGTCTGAC	0.9946 ± 0.0028

Sequence	switch fluorescence ratio
TTTGTCTTGG	0.972 ± 0.031
TTTGTGAAAG	1.008 ± 0.006
TTTGTGAGGT	1.01 ± 0.034
TTTGTGATG	0.959 ± 0.027
TTTGTGATGG	0.954 ± 0.026
TTTGTGCCTT	1.1 ± 0.12
TTTGTGGGGC	1.01 ± 0.042
TTTGTGGTAG	0.984 ± 0.011
TTTGTGGTCC	0.98 ± 0.039
TTTGTGTAGC	1 ± 0.038
TTTGTGTATA	0.976 ± 0.057
TTTGTGTGTT	1.02 ± 0.024
TTTGTGTTAG	0.9983 ± 0.0082
TTTGTGTTTG	0.999 ± 0.016
TTTGTTAATA	1.02 ± 0.014
TTTGTTACAG	1 ± 0.031
TTTGTTACTT	1.01 ± 0.021
TTTGTTATTT	1.01 ± 0.023
TTTGTTCACG	0.991 ± 0.01
TTTGTTCCTC	1.103 ± 0.005
TTTGTTCGGC	1 ± 0.033
TTTGTTGTAC	1.06 ± 0.058
TTTGTTGTTT	0.986 ± 0.013
TTTGTTTCT	0.968 ± 0.01
TTTGTTTGCT	0.989 ± 0.025

Sequence	switch fluorescence ratio
TTTGTTTTC	1.02 ± 0.018
TTTGTTTTCT	1.01 ± 0.032
TTTTAAAAAA	1 ± 0.026
TTTTAAACGT	1.04 ± 0.039
TTTTAAAGAT	0.977 ± 0.021
TTTTAAAGGG	0.993 ± 0.045
TTTTAAAGTC	1.02 ± 0.03
TTTTAACAGG	1.02 ± 0.08
TTTTAACTCT	1.05 ± 0.015
TTTTAACTGT	1.01 ± 0.038
TTTTAAGGAA	1.04 ± 0.071
TTTTAAGGGA	0.998 ± 0.014
TTTTAAGGGT	0.999 ± 0.036
TTTTAATTCA	1 ± 0.015
TTTTACCACT	1.0422 ± 0.00058
TTTTACCCTT	1.04 ± 0.04
TTTTACGCAG	1.03 ± 0.044
TTTTACGGGG	1.02 ± 0.03
TTTTACTGAG	1.04 ± 0.025
TTTTACTTAC	1.25 ± 0.059
TTTTAGAATT	0.996 ± 0.013
TTTTAGACTG	1.05 ± 0.039
TTTTAGAGTT	0.982 ± 0.013
TTTTAGCAGA	1.06 ± 0.016
TTTTAGCTTC	1.03 ± 0.017

Sequence	switch fluorescence ratio
TTTTAGGAAT	0.997 ± 0.027
TTTTAGGAGT	0.989 ± 0.037
TTTTAGGCCG	1.03 ± 0.042
TTTTAGGGGC	1.13 ± 0.23
TTTTAGGGTG	1.07 ± 0.072
TTTTAGGTGC	1.09 ± 0.099
TTTTAGTCAT	1.01 ± 0.014
TTTTAGTGAC	1.022 ± 0.0053
TTTTAGTT	0.993 ± 0.039
TTTTATAAGG	1.01 ± 0.023
TTTTATAATT	1.04 ± 0.089
TTTTATATTT	1 ± 0.034
TTTTATCCTT	1 ± 0.028
TTTTATCTAA	0.988 ± 0.048
TTTTATCTGA	1.02 ± 0.028
TTTTATGAGG	0.973 ± 0.03
TTTTATGC	1.01 ± 0.061
TTTTATTAAT	0.978 ± 0.04
TTTTATTACT	2.27 ± 1.8
TTTTATTATC	0.9986 ± 0.0079
TTTTATTCCT	1.04 ± 0.037
TTTTATTCGG	0.9614 ± 0.0095
TTTTATTTA	0.9701 ± 0.0072
TTTTATTTAT	1.02 ± 0.053
TTTTATTTCG	1.03 ± 0.068

— the supplement of paper PMC10126150
